Source: the supplement of paper PMC11908140

B1: library; numbered along this chain (parent)
chain: MRKPRAAVGSGHRKQAASQEGRQKHAKNNSQAKPSACDGLARQPEEVVLQASVSSYHLFRDVAEVTAFRGSLLSWYDQEKRDLPWRRRAEDEMDLDRRAYAVWVSEVMLQQTQVATVINYYTGWMQKWPTLQDLASASLEEVNQLWAGLGYYSRGRRLQEGARKVVEELGGHMPRTAETLQQLLPGVGRYTAGAIASIAFGQATGVVDGNVARVLCRVRAIGADPSSTLVSQQLWGLAQQLVDPARPGDFNQAAMELGATVCTPQRPLCSQCPVESLCRARQRVEQEQLLASGSLSGSPDVEECAPNTGQCHLCLPPSEPWDQTLGVVNFPRKASRKPPREESSATCVLEQPGALGAQILLVQRPNSGLLAGLWEFPSVTWEPSEQLQRKALLQELQRWAGPLPATHLRHLGEVVHTFSHIKLTYQVYGLALEGQTPVTTVPPGARWLTQEEFHTAAVSTAMKKVFRVYQGQQPGTCMGSKRSQVSSPCSRKKPRMGQQVLDNFFRSHISTDAHSLNSAAQ

Variants of: B1
Experiment: 8OG:A repair function score (normalized; synonymous = 0, nonsense = -1) (normalized log-likelihood score); higher = more repair activity (WT-like)
Conditions: with 8OG:A DNA repair reporter (GFP) in HEK-293 MUTYH KO cells
Procedure, shortened: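 Per-tile Rosace fitness scores were converted to a normalized repair function score anchored on synonymous and nonsense distributions. That scale puts synonymous medians at 0 and nonsense medians at -1. Variants with starting counts under 300 counts per million were discarded. Input came from sorting viable mCherry+ MUTYH knockout HEK-293 cells, carrying lentiviral MUTYH cDNA NNN codon-scan libraries in 10 pg/ml doxycycline and an 8OG:A GFP repair reporter, into GFP+ and GFP− bins at 72 h, three replicates per tile, followed by tile amplicon sequencing.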
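Further: cells sorted at 72 h after reporter transfection.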

8OG:A repair function score: each site, then its substitutions
I421: E -0.385; K -0.173; Y -0.435; R -0.207; D -0.852; C -0.3; N -0.83; M -0.139; H -0.201; V -0.0973; L 0.0792; S -0.59
V427: W -0.831; I -0.18; N -1.15; C -0.195; S -0.925; L -0.345; K -1.06; T -0.409; A -0.455; E -1.24; Y -1.2; F -1.1; H -1.08; D -1.2; G -1.03; P -1.13; Q -1.16; M -0.599; R -1.04
H420: L -0.527; G -0.0793; R -0.393; F -0.576; Y -0.672; N -0.608; M -0.23; T -0.525; P -0.877; K -0.792; W -0.434; Q -0.0915; V -0.371; I -0.666; S -0.494
Q426: I -0.057; W -0.215; N -0.05; H -0.0882; L -0.0573; K 0.106; M -0.183; V -0.068; P -0.928; C -0.0839; R -0.143; T -0.247; G -0.158; Y 0.0116; A -0.0345; E -0.28; D -0.46; S -0.0807; F -0.17
T424: I 0.0389; V -0.09; L -0.165; C -0.0623; S -0.192; E -0.45; H -0.235; G -0.293; R -0.0759; W -0.204; P -0.685; F -0.0268; Q -0.355; A -0.121; N -0.156; Y -0.181; M -0.383; K -0.203; D -0.256
